The source of these data is paper PMC2894972, “Protein-Protein Interaction Antagonists as Novel Inhibitors of Non-Canonical Polyubiquitylation” (PLoS ONE, 2010).

For this test, the target named is T1, Ubc13 (human, UniProt P61088 1-152).
T1 construct: Ubc13, ubiquitin-conjugating enzyme (E2), human; also called purified Ubc13; source: recombinant, purified
T1 sequence (looked up): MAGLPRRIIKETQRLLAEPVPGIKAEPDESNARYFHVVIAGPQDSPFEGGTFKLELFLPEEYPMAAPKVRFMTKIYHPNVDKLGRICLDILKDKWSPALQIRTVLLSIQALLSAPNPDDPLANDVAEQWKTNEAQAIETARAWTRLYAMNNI
Kind of test: SPR; Uev1 immobilised on a Biacore CM5 chip (1179,1 RU); Ubc13 in the mobile phase; 10 mM HEPES, 0.15 M NaCl, pH 7.4; Biacore T100. The note with it: both partners purified. On the technique in general: Surface plasmon resonance follows binding to a sensor surface in real time, without labels.

B1: Uev1 (natural protein)
chain: not shown
notes: Uev1, ubiquitin-conjugating enzyme variant 1, human; also called recombinant Uev1; source: recombinant, purified
Molecule B1 had a Kd of 1 nM.

Broadly, the Kd is a measure of binding affinity in units of concentration.
